Assay results taken from the Human Domainome abundance scans (Beltran et al. 2025).
± gives the uncertainty stated by the source.

B1: TOX high mobility group box family member 3, residues 256 to 323; numbered along this chain, O15405 (parent)
chain: QKPVSAYALFFRDTQAAIKGQNPNATFGEVSKIVASMWDSLGEEQKQVYKRKTEAAKKEYLKALAAYR

Variants of: B1
Assay: abundance fitness (aPCA) (normalised: wild type 0, dead -1); higher = more abundant; growth selection in yeast, the domain comes from the species named
Conditions: Homo sapiens

| Variant | abundance fitness |
| --- | --- |
| QKPVSAYALFFRDTQAAIKGQNPNATFGERSKIVASMWDSLGEEQKQVYKRKTEAAKKEYLKALAAYR | -0.43 ± 0.062 |
| QKPVSAYALFFRDTQAAIKGQNPNATFGESSKIVASMWDSLGEEQKQVYKRKTEAAKKEYLKALAAYR | -0.635 ± 0.099 |
| QKPVSAYALFFRDTQAAIKGQNPNATFGETSKIVASMWDSLGEEQKQVYKRKTEAAKKEYLKALAAYR | -0.342 ± 0.13 |
| QKPVSAYALFFRDTQAAIKGQNPNATFGEWSKIVASMWDSLGEEQKQVYKRKTEAAKKEYLKALAAYR | -0.319 ± 0.074 |
| QKPVSAYALFFRDTQAAIKGQNPNATFGEYSKIVASMWDSLGEEQKQVYKRKTEAAKKEYLKALAAYR | -0.811 ± 0.17 |
| QKPVSAYALFFRDTQAAIKGQNPNATFGEVCKIVASMWDSLGEEQKQVYKRKTEAAKKEYLKALAAYR | -0.163 ± 0.072 |
| QKPVSAYALFFRDTQAAIKGQNPNATFGEVDKIVASMWDSLGEEQKQVYKRKTEAAKKEYLKALAAYR | -0.105 ± 0.27 |
| QKPVSAYALFFRDTQAAIKGQNPNATFGEVEKIVASMWDSLGEEQKQVYKRKTEAAKKEYLKALAAYR | 0.015 ± 0.082 |
| QKPVSAYALFFRDTQAAIKGQNPNATFGEVFKIVASMWDSLGEEQKQVYKRKTEAAKKEYLKALAAYR | -0.664 ± 0.12 |
| QKPVSAYALFFRDTQAAIKGQNPNATFGEVGKIVASMWDSLGEEQKQVYKRKTEAAKKEYLKALAAYR | -0.224 ± 0.057 |
| QKPVSAYALFFRDTQAAIKGQNPNATFGEVHKIVASMWDSLGEEQKQVYKRKTEAAKKEYLKALAAYR | -0.265 ± 0.11 |
| QKPVSAYALFFRDTQAAIKGQNPNATFGEVIKIVASMWDSLGEEQKQVYKRKTEAAKKEYLKALAAYR | -0.583 ± 0.15 |
| QKPVSAYALFFRDTQAAIKGQNPNATFGEVKKIVASMWDSLGEEQKQVYKRKTEAAKKEYLKALAAYR | 0.116 ± 0.084 |
| QKPVSAYALFFRDTQAAIKGQNPNATFGEVLKIVASMWDSLGEEQKQVYKRKTEAAKKEYLKALAAYR | -0.637 ± 0.073 |
| QKPVSAYALFFRDTQAAIKGQNPNATFGEVNKIVASMWDSLGEEQKQVYKRKTEAAKKEYLKALAAYR | -0.213 ± 0.16 |
| QKPVSAYALFFRDTQAAIKGQNPNATFGEVPKIVASMWDSLGEEQKQVYKRKTEAAKKEYLKALAAYR | -1 ± 0.22 |
| QKPVSAYALFFRDTQAAIKGQNPNATFGEVQKIVASMWDSLGEEQKQVYKRKTEAAKKEYLKALAAYR | -0.063 ± 0.083 |
| QKPVSAYALFFRDTQAAIKGQNPNATFGEVRKIVASMWDSLGEEQKQVYKRKTEAAKKEYLKALAAYR | -0.062 ± 0.047 |
| QKPVSAYALFFRDTQAAIKGQNPNATFGEVTKIVASMWDSLGEEQKQVYKRKTEAAKKEYLKALAAYR | -0.118 ± 0.08 |
| QKPVSAYALFFRDTQAAIKGQNPNATFGEVWKIVASMWDSLGEEQKQVYKRKTEAAKKEYLKALAAYR | -0.696 ± 0.15 |

| Variant | abundance fitness |
| --- | --- |
| QKPVSAYALFFRDTQAAIKGQNPNATFGEVYKIVASMWDSLGEEQKQVYKRKTEAAKKEYLKALAAYR | -0.162 ± 0.12 |
| QKPVSAYALFFRDTQAAIKGQNPNATFGEVSAIVASMWDSLGEEQKQVYKRKTEAAKKEYLKALAAYR | -0.048 ± 0.058 |
| QKPVSAYALFFRDTQAAIKGQNPNATFGEVSCIVASMWDSLGEEQKQVYKRKTEAAKKEYLKALAAYR | -0.289 ± 0.072 |
| QKPVSAYALFFRDTQAAIKGQNPNATFGEVSDIVASMWDSLGEEQKQVYKRKTEAAKKEYLKALAAYR | -0.078 ± 0.075 |
| QKPVSAYALFFRDTQAAIKGQNPNATFGEVSEIVASMWDSLGEEQKQVYKRKTEAAKKEYLKALAAYR | -0.167 ± 0.064 |
| QKPVSAYALFFRDTQAAIKGQNPNATFGEVSHIVASMWDSLGEEQKQVYKRKTEAAKKEYLKALAAYR | -0.286 ± 0.075 |
| QKPVSAYALFFRDTQAAIKGQNPNATFGEVSIIVASMWDSLGEEQKQVYKRKTEAAKKEYLKALAAYR | -0.416 ± 0.14 |
| QKPVSAYALFFRDTQAAIKGQNPNATFGEVSLIVASMWDSLGEEQKQVYKRKTEAAKKEYLKALAAYR | -0.376 ± 0.054 |
| QKPVSAYALFFRDTQAAIKGQNPNATFGEVSMIVASMWDSLGEEQKQVYKRKTEAAKKEYLKALAAYR | -0.198 ± 0.069 |
| QKPVSAYALFFRDTQAAIKGQNPNATFGEVSNIVASMWDSLGEEQKQVYKRKTEAAKKEYLKALAAYR | 0.214 ± 0.21 |
| QKPVSAYALFFRDTQAAIKGQNPNATFGEVSPIVASMWDSLGEEQKQVYKRKTEAAKKEYLKALAAYR | -0.966 ± 0.16 |
| QKPVSAYALFFRDTQAAIKGQNPNATFGEVSQIVASMWDSLGEEQKQVYKRKTEAAKKEYLKALAAYR | -0.337 ± 0.097 |
| QKPVSAYALFFRDTQAAIKGQNPNATFGEVSRIVASMWDSLGEEQKQVYKRKTEAAKKEYLKALAAYR | -0.045 ± 0.057 |
| QKPVSAYALFFRDTQAAIKGQNPNATFGEVSSIVASMWDSLGEEQKQVYKRKTEAAKKEYLKALAAYR | -0.107 ± 0.053 |
| QKPVSAYALFFRDTQAAIKGQNPNATFGEVSTIVASMWDSLGEEQKQVYKRKTEAAKKEYLKALAAYR | -0.055 ± 0.065 |
| QKPVSAYALFFRDTQAAIKGQNPNATFGEVSWIVASMWDSLGEEQKQVYKRKTEAAKKEYLKALAAYR | -0.455 ± 0.14 |
| QKPVSAYALFFRDTQAAIKGQNPNATFGEVSYIVASMWDSLGEEQKQVYKRKTEAAKKEYLKALAAYR | -0.662 ± 0.14 |
| QKPVSAYALFFRDTQAAIKGQNPNATFGEVSKAVASMWDSLGEEQKQVYKRKTEAAKKEYLKALAAYR | -0.104 ± 0.05 |
| QKPVSAYALFFRDTQAAIKGQNPNATFGEVSKCVASMWDSLGEEQKQVYKRKTEAAKKEYLKALAAYR | -0.324 ± 0.089 |
